Test results as given in patent US20240317851A1 (LANOVA MEDICINES, published 2024).

T1: human Claudin 6 (human, UniProt P56747 1-220)
T1 sequence (looked up): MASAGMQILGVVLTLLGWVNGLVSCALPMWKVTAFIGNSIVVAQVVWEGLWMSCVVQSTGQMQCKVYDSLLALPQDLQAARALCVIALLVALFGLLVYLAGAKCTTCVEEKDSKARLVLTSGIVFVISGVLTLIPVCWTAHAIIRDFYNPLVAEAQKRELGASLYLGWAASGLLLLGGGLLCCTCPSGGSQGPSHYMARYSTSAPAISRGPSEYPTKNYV

T2: human Claudin 3 (human, UniProt O15551 1-220)
T2 construct: whole, on cells; also called CLDN3
T2 sequence (looked up): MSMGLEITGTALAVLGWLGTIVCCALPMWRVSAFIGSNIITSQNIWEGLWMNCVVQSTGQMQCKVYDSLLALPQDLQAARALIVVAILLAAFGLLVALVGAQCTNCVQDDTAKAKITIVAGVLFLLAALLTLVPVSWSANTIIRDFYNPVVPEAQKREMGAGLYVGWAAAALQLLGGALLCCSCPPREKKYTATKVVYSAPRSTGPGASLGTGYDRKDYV


Assays:
human Claudin 6 [1] = target: T1, human Claudin 6; assay: cell-based or functional assay
human Claudin 6 [2] = target: T1, human Claudin 6; assay: cell-based or functional assay; remark: listed apart in the source
human Claudin 6 [3] = target: T1, human Claudin 6; assay: cell-based or functional assay; remark: listed apart in the source
human Claudin 6 [4] = target: T1, human Claudin 6; assay: cell-based or functional assay; remark: listed apart in the source
human Claudin 6 [5] = target: T1, human Claudin 6; assay: flow cytometry, OVCAR3 cells (endogenous CLDN6), Ab titrated from 100 nM
Experimental: In this example, FACS binding of chimeric Abs to Ovcar3 and Ov90 cells with claudin 6 endogenous expression were assessed using flow cytometry.
(§1) Claudin 6 endogenous expression cell line were incubated with chimeric Abs (from 100 nM, 6-fold dilution, 8 points) for 60 minutes at 4° C. Cells were pelleted and washed twice with 2% FBS/PBS buffer, and stained with fluorescent conjugated secondary antibody at 4° C. for 30 minutes. After that the cells were washed twice and resuspended in 80 μL of 2% FBS/PBS buffer. Fluorescent signal of binding was detected using Agilent. The EC50 was calculated using the GraphPad software.

human Claudin 6 [6] = target: T1, human Claudin 6; assay: flow cytometry, HEK293/H_CLDN6 cells, Ab titrated from 100 nM
Experimental: In this example, cell based binding of chimeric Abs on human CLDN6 & CLND9 over-expressing cell line were assessed using flow cytometry.
as §1, with “Briefly, the cells” for “Claudin 6 endogenous expression cell line”, “software (LaJolla, CA).” for “software.”

human Claudin 6 [7] = target: T1, human Claudin 6; assay: cell-based or functional assay; remark: listed apart in the source
human Claudin 3 = target: T2, human Claudin 3; assay: flow cytometry, CHOK1/CLDN3 cells
Experimental: In this example, cell based binding of chimeric antibody 97-C10E1-2 toward human CLDN3 overexpression cell line were assessed using flow cytometry.
Briefly, cells were incubated with chimeric antibody (from 100 nM, 6 folds dilution, 8 points). After incubation at 4° C. for 60 minutes. Cells were pelleted and washed twice with 2% FBS/PBS buffer, and stained with fluorescent conjugated secondary antibody at 4° C. for 30 minutes. After that the cells were washed twice and resuspended in 80 μL of 2% FBS/PBS buffer. Fluorescent signal of binding was detected using Agilent. The EC50 was calculated using the GraphPad Software.

Binder | Min cell viability, OV90 (CLDN6 low) (human Claudin 6 [1]) [%] | Min cell viability, OVCAR-3 (CLDN6 mid) (human Claudin 6 [1]) [%] | Min cell viability, PA-1 (CLDN6 high) (human Claudin 6 [1]) [%] | cytotoxicity IC50 (nM), OV90 cells, 5 days (human Claudin 6 [2]) [nM] | cytotoxicity IC50 (nM), OVCAR3 cells, 5 days (human Claudin 6 [2]) [nM] | cytotoxicity IC50 (nM), PA-1 cells, 5 days (human Claudin 6 [2]) [nM] | cytotoxicity IC50 (nM), CLDN6 High Exp HEK293 cells, 5 days (human Claudin 6 [3]) [nM] | internalization Top RLU (HEK293/H_CLDN6) (human Claudin 6 [4]) [RLU] | Top MFI (human Claudin 6 [5]) | Top MFI (human Claudin 6 [6]) | Inhibition Rate (%) (HEK293/H_CLDN6) (human Claudin 6 [7]) | binding result (human Claudin 3)
z5-MMAE (antibody, V domains shown, MMAE conjugated to the antibody; residues and drug load not stated) VH: QVQLVQSGAEVKKPGASVKVSCKASGYAFTGYTMNWVRQAPGQGLEWIGLSNPYNAGTIYNQKFKGRVTMTVDKSTSTVYMELSSLRSEDTAVYYCARNYYYGSSYAYYYAMDYWGQGTTVTVSS VL: DIVVTQSPSSLSTSVGDRVTITCRSSTGAVTTSNYANWVQEKPGKAFKGLIGGTNNRAPGVPARFSGSLSGDDAALTISSAQPEDFATYFCALWYSNHWVFGGGTKVEIK | 8 | 3.71 | 4.88 | 0.76 | 0.13 | 0.11 | 0.1 | – | – | – | – | –
z5-Eribulin (antibody, V domains shown, eribulin conjugated to the antibody; residues and drug load not stated) VH: QVQLVQSGAEVKKPGASVKVSCKASGYAFTGYTMNWVRQAPGQGLEWIGLSNPYNAGTIYNQKFKGRVTMTVDKSTSTVYMELSSLRSEDTAVYYCARNYYYGSSYAYYYAMDYWGQGTTVTVSS VL: DIVVTQSPSSLSTSVGDRVTITCRSSTGAVTTSNYANWVQEKPGKAFKGLIGGTNNRAPGVPARFSGSLSGDDAALTISSAQPEDFATYFCALWYSNHWVFGGGTKVEIK | – | – | – | 4.66 | 0.11 | 0.46 | 0.1 | – | – | – | – | –
97-C10E1-2 (antibody, V domains shown, Tested as chimeric antibody; also called chimeric antibody 97-C10E1-2) VH: EVQLQQSGPELVKPGASMKISCKASGYAFTGYTMNWVKQSHGKNLEWIGLSNPYNGGTIYNQKFKGKATLTVDKSSSTAYMELLSLTSEDSAVYYCARNYYYGSSYAYYYAMDYWGQGTSVTVSS VL: QAVVTQESALTTSPGETVTLTCRSSTGAVTTSNYANWVQEKPDHLFTGLIGGTNNRAPGVPARFSGSLIGDKAALTITGAQTEDEAIYFCALWYSNHWVFGGGTKLTVL | – | – | – | – | – | – | – | 829000 | 2590 | 321000 | 83.4 | no binding (tested: 100 nM (highest concentration tested))
